Here are results for two molecules from US8106004B2, “Methods of inhibiting tumor cell aggressiveness using the microenvironment of human embryonic stem cells” (Children's Memorial Hospital, priority 2006, dated 2012).

What all share (format): cell-based, human
The test system of experiment [1] is C8161 cells. The experiment is described as follows: Soft agar / anchorage independent growth assay, C8161 cells. Conditions: for rescue of inhibition of in vitro clonogenicity: recombinant Nodal 100 ng/mL. Here is the method:
(§1) An in vitro colony forming assay was used to analyze colony-forming ability of poorly aggressive C81-61 cells, aggressive C8161 cells, C8161 cells treated with MO^Nodal and C8161 cells treated with MO^Nodal and rescued with recombinant Nodal (100 ng/mL). The assay was conducted using 50,000 cells suspended in 0.35% agarose in RPMI containing 10% serum, which were plated into 6-well dishes on 0.5% agar in the same medium. Colonies grew, and pictures were taken at day 7. After 2 weeks, colonies were stained with Crystal Violet and counted.
The derivation and phenotypic characteristics of the human melanoma cell lines have been previously described. Seftor, et. al., 2002, Clin. Experim. Metastas. 19:233-246; Seftor, et. al., 2005 Cancer Res. 65:10164-10169. The melanoma cell lines are maintained in RPMI 1640 medium (Invitrogen) supplemented with 10% fetal bovine serum (FBS, Gemini Bioproducts) and 0.1% gentamycin sulfate with the exception of C81-61 cells which are maintained in Ham's FIO medium supplemented with 15% FBS, 1X Mito+ (BD Bioscience) and gentamycin sulfate. Normal human melanocytes are purchased (Cascade Biologics) or isolated from neonatal foreskins. Seftor, et. al., 2005. A single cell suspension is prepared, added to plastic flasks for the adherence of melanocytes and the cells propagated in Medium 254 with Human Melanocyte Growth Supplement (Cascade Biologics) including, 100 units/ml penicillin, 100 μg/ml streptomycin, and 250 ng/mL amphotericin B. The human embryonic stem cell lines are cultured as previously described. Thomson, et. al., 1998, Science 282:1145-1147. Briefly, cells are grown in 6-well plates precoated with 0.1% porcine gelatin and containing 1.9×10^5 irradiated mouse embryonic fibroblasts (strain CF-1; ATCC) per well. The cells are maintained in medium containing DMEM/F12 (1:1), 20% knock-out serum replacement, non-essential minimal amino acids, L-glutamine (Invitrogen), […], and 4 ng/ml FGF-2 (R&D Systems), and are split with collagenase (1 mg/ml) before the colonies begin to overlap. The cultures are determined to be free of mycoplasma contamination using a PCR-based assay (Roche). The normal human neonatal epidermal melanocytes (HEMn-LP; Cascade Biologics, Portland Oreg.), myoepithelial cells (Hs 578 Bst; American Type Culture Collection (ATCC), Manassas, Va.) and primary mammary epithelial cells (HMEpC; Cell Applications Inc., San Diego Calif.) were maintained as per distributor instructions. Live umbilical cord blood stem cells (SC00125; New Jersey Stem Cell Resource at Coriell Institute for Medical Research) amniotic fluid derived stem cells (GM00473, GM00957A) and adult bone marrow derived mesenchymal stem cells (Stem Cell Technologies, Vancouver BC, Canada) were maintained under the recommended conditions. The HTR-8/SVneo is a well characterized immortalized human extravillous cytotrophoblast cell line, and was maintained as previously described Graham et al., 1993, Exp. Cell Res. 206:204-211. […] The expression vector for wild type Nodal was kindly provided by Dr. Daniel Constam (Swiss Institute for Experimental Cancer Research (ISREC), Epalinges, Switzerland) and was transfected into C81-61 cells as previously described. Le Good et al., 2005, Curr. Biol. 15:31-36. […]

In experiment [2] the test system is MDA-MB-231 cells. The experiment is described as follows: Soft agar / anchorage independent growth assay, MDA-MB-231 cells. The note with it: recombinant Nodal 100 ng/mL.
Procedure: The melanoma cell lines are maintained in RPMI 1640 medium (Invitrogen) supplemented with 10% fetal bovine serum (FBS, Gemini Bioproducts) and 0.1% gentamycin sulfate with the exception of C81-61 cells which are maintained in Ham's FIO medium supplemented with 15% FBS, 1X Mito+ (BD Bioscience) and gentamycin sulfate. Normal human melanocytes are purchased (Cascade Biologics) or isolated from neonatal foreskins. […] A single cell suspension is prepared, added to plastic flasks for the adherence of melanocytes and the cells propagated in Medium 254 with Human Melanocyte Growth Supplement (Cascade Biologics) including, 100 units/ml penicillin, 100 μg/ml streptomycin, and 250 ng/mL amphotericin B. The human embryonic stem cell lines are cultured as previously described. […] Briefly, cells are grown in 6-well plates precoated with 0.1% porcine gelatin and containing 1.9×10^5 irradiated mouse embryonic fibroblasts (strain CF-1; ATCC) per well. […] The cultures are determined to be free of mycoplasma contamination using a PCR-based assay (Roche). […] The conditioned matrix is then analyzed by 2-D LDS-PAGE and Western blot directly, or reseeded with melanoma cells and incubated for an additional 3 days. […]
The test system of experiment [3] is C81-61 cells. In words: Soft agar colony forming assay, C81-61 cells. Conditions: C81-61 cell line, rNodal. The procedure: as §1
The subject of experiment [4] is Nodal. In words: Nodal expression in C8161 cells (Western blot, real time RT-PCR). Conditions: C8161 exposed 48 hrs to 0-1000 ng/mL recombinant Lefty. Here is the method:
A determination of the effects of H9 CMTX on Nodal expression in metastatic melanoma (C8161) and breast carcinoma (MDA-MB-231) cells was undertaken. […] Exposure to H9 CMTX similarly abrogates Nodal mRNA expression in the melanoma and breast carcinoma cells (FIG. 9C).
Protein lysates were prepared and quantified as previously described in Hess et al., 2001, Cancer Res. 61:3250-3255. Equal amounts of protein were separated by SDS-polyacrylamide gel electrophoresis under reducing conditions, and the resolved proteins were transferred onto Immobilon-P membranes (Millipore Corp., Bedford, Mass.). Membranes were blocked in 1% TBS, 0.1% Tween 20 (TBS-T) and 5% dry milk powder or 3% gelatin (for Nodal Westerns). Blots were incubated with anti-Nodal or anti-Lefty antibodies (Polyclonal rabbit anti-Nodal (H-110) 1:500 Santa Cruz Biotechnology, Santa Cruz, Calif.; Polyclonal goat anti-Lefty 1:500 R&D Systems, Minneapolis, Minn.), washed in TBS-T, and incubated with the appropriate horseradish peroxidase-labeled secondary antibody. Secondary antibodies were detected by enhanced chemiluminescence (Super Signal; Pierce, Rockford, Ill.) and exposure to autoradiography film (Molecular Technologies, St Louis, Mo.). Nodal protein was detected as two major bands at ˜48 and ˜35 kDa representing precursor and pro-Nodal respectively. Nodal often appeared as multiple bands, likely due to degradation of protein modifications. All experiments were done at least three times.
The derivation and phenotypic characteristics of the human melanoma cell lines have been previously described. Seftor, et. al., 2002, Clin. Experim. Metastas. 19:233-246; Seftor, et. al., 2005 Cancer Res. 65:10164-10169. The melanoma cell lines are maintained in RPMI 1640 medium (Invitrogen) supplemented with 10% fetal bovine serum (FBS, Gemini Bioproducts) and 0.1% gentamycin sulfate with the exception of C81-61 cells which are maintained in Ham's FIO medium supplemented with 15% FBS, 1X Mito+ (BD Bioscience) and gentamycin sulfate. […] The cultures are determined to be free of mycoplasma contamination using a PCR-based assay (Roche). […]

B1: rNodal: recombinant Nodal (R&D Systems), used at 100 ng/mL (protein, UniProt Q96S42 238-347, looked up)
Nodal homolog: HHLPDRSQLCRKVKFQVDFNLIGWGSWIIYPKQYNAYRCEGECPNPVGEEFHPTNHAYIQSLLKRYQPHRVPSTCCAPVKTKPLSMLYVDNGRVLLDHHKDMIVEECGCL
In the case of B1, the “rescue of inhibition of in vitro clonogenicity” value is “partially rescued” in experiment [1] (C8161 exposed to H9 CMTX), “completely rescued” in experiment [1] (C8161 exposed to H9 Lefty-containing matrix), “partially rescued” in experiment [2] (MDA-MB-231 exposed to H9 CMTX) and “completely rescued” in experiment [2] (MDA-MB-231 exposed to H9 Lefty-containing matrix). The “rescue of reduced colony formation” value in experiment [1] (C8161 treated with MONodal, rNodal 100 ng/mL) was “rescued”. Besides, the colony formation entry in experiment [3] was “did not induce colony formation”.

B2: rLeftyB: recombinant Lefty-B (protein, UniProt O00292 77-366, looked up)
Left-right determination …: RFSQSFREVAGRFLASEASTHLLVFGMEQRLPPNSELVQAVLRLFQEPVPKAALHRHGRLSPRSAQARVTVEWLRVRDDGSNRTSLIDSRLVSVHESGWKAFDVTEAVNFWQQLSRPRQPLLLQVSVQREHLGPLASGAHKLVRFASQGAPAGLGEPQLELHTLDLRDYGAQGDCDPEAPMTEGTRCCRQEMYIDLQGMKWAKNWVLEPPGFLAYECVGTCQQPPEALAFNWPFLGPRQCIASETASLPMIVSIKEGGRTRPQVVSLPNMRVQKCSCASDGALVPRRLQP
As for B2, the “Nodal protein expression (Western blot)” value in experiment [4] is “can inhibit Nodal protein in C8161 cells, but at a higher doses than its hESC counterpart”.
